Experimental data taken from the supplement of paper PMC7125110.
± gives the standard error. This sample holds only a part of the variants without activity.

B1: glmS ribozyme (parent)
chain: AUAAAAGCGCCAGAACUACAGAAAUGUAGUUGACGAGGAGGAGGUUUAUCGAAUUUUCGGCGGAUGCCUCCAAA

Columns and labels:
Conditions in all cases: with glucosamine-6-phosphate
glucosamine-6-phosphate [1] = variants of: B1; experiment: self-cleavage kobs at 160 uM GlcN6P; higher = faster cleavage; RNA array
How it was run: (§1)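 Glucosamine-6-phosphate, from 40 μM to 10 mM in HEPES/KCl/Mg(OAc)2 buffer, was flowed over sequenced MiSeq chips carrying barcoded ribozyme variants transcribed in situ by E. coli RNA polymerase. A hybridised Cy3 probe tracked the variants at 37 °C as tiles were imaged over ~14 h. kobs, kcat and KM were obtained by fitting normalised per-tile medians to exponential decays and then applying weighted Michaelis–Menten fits across concentrations.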

glucosamine-6-phosphate [2] = variants of: B1; experiment: self-cleavage kobs at 640 uM GlcN6P; higher = faster cleavage; RNA array
How it was run: as §1

glucosamine-6-phosphate [3] = variants of: B1; experiment: self-cleavage kobs at 2500 uM GlcN6P; higher = faster cleavage; RNA array
How it was run: as §1

glucosamine-6-phosphate [4] = variants of: B1; experiment: self-cleavage kobs at 10000 uM GlcN6P; higher = faster cleavage; RNA array
How it was run: as §1

Variant	self-cleavage kobs at 160 uM GlcN6P (glucosamine-6-phosphate [1]) [s⁻¹]	self-cleavage kobs at 640 uM GlcN6P (glucosamine-6-phosphate [2]) [s⁻¹]	self-cleavage kobs at 2500 uM GlcN6P (glucosamine-6-phosphate [3]) [s⁻¹]	self-cleavage kobs at 10000 uM GlcN6P (glucosamine-6-phosphate [4]) [s⁻¹]
AUAAAAGCGCCAGGACUACAGAAAUGUAGUUGACUAGGAGGAGGUUUAUCGAAUUUUCGGCGGAUUCCUCCAAA [A14G G35U G66U]	< 1e-05	< 1e-05	–	–
AUAAAAGCGCCAGGACUACAGAAAUGUAGUUGACUAGGAGGAGGUUUAUCGAAUUUUCGACGGAUGCGUCCAAA [A14G G35U G60A C68G]	< 1e-05	–	–	–
AUAAAAGCGCCAGCACUACAGAAAUGUAGUUGACAAGGAGGAGGUUUAUCGAAUUUUCGGCGGAUGCCUCCAAA [A14C G35A]	< 1e-05	< 1e-05	< 1e-05	< 1e-05
AUAAAAGCGCCAGCACUACAGAAAUGUAGGUGACGAGGAGCAGGUUUAUCGAGUUUUCGGCGGAUGCCUCCAAA [A14C U30G G41C A53G]	< 1e-05	–	< 1e-05	–
AUAAAAGCGCCAGGACUACAGAAAUGUAGUUGACGAGGAGGAGGUUUAUCGAAUUAUCGGCGGAUGACUCCAAA [A14G U56A C67A]	0.00127 ± 0.00033	0.00567 ± 0.0018	0.00817 ± 0.0024	–
AUAAAAGCGCCAGGACUACAGAAAUGUAGUUGACGAGGAGGAGGUUUAUCGAAUUGCCGGCGGAUGCCUCCAAA [A14G U56G U57C]	3.78e-05 ± 1.6e-05	5.18e-05 ± 1.5e-05	0.000269 ± 8.2e-05	–
AUAAAAGCGCCAGGACUACAGAAAUGUAGUUGACGAGGCUGAGGUAUAUCGACUUUUCGGCGGAUGCCUCCAAA [A14G A39C G40U U46A A53C]	< 1e-05	–	< 1e-05	–
AUAAAAGCGCCAGCACUACAGAAAUGUAGUUGACGAGGAGGAGGUUUAUCGAAUUUUCGGCGGAUACCUCUAAA [A14C G66A C71U]	0.000171 ± 5.4e-05	0.000399 ± 9.8e-05	0.00114 ± 0.00023	–
AUAAAAGCGCCAGCUCUACAGAAAUGUAGUUGACGAGGAGGAGGUUUAUCGAAUUUUCGGCGGAUGCCUACAAA [A14C A15U C70A]	0.000105 ± 3.4e-05	0.000263 ± 5.6e-05	0.000232 ± 8.4e-05	–
AUAAAAGCGCCAGGACUACAGAAAUGUAGAUAACGAGGAGGAGGUUUAUCGAAUUUUCGGCGGAUGCAUCCAAA [A14G U30A G32A C68A]	< 1e-05	–	–	–
AUAAAAGCGCCAGGACUACAGAAAUGUAGUUGACGAGGAGGAGGUUUAACGAAUUAUCGGCAGAUGCCUCUAAA [A14G U49A U56A G62A C71U]	< 1e-05	–	–	–
AUAAAAGCGCCAUAACUACAGAAAUGUAGUUGACGAGGAGCUGGUUUAUCGAAUUUUCGGCGGACGCCUCCAAA [G13U G41C A42U U65C]	< 1e-05	< 1e-05	< 1e-05	–
AUAAAAGCGCCAGCACUACAGAAAUGUAGUUGACGAGGAGGAGGUUUAUGGAAUUUUCGGCGGAUGCCUCCAAA [A14C C50G]	5.43e-05 ± 1.5e-05	0.000625 ± 0.00028	4.32e-05 ± 1.3e-05	–
AUAAAAGCGCCAUAACUACAGAAAUGUAGUAGAAGAGGAGGAGGUUUCUCGAAUUUUCGGCUGAUGCCUCCAAA [G13U U31A C34A A48C G62U]	< 1e-05	–	–	–
AUAAAAGCGCCAGCACUACAGAAAUGUAGUUGACGAGGAGGAGGUUUAUGGAAUUUUCGGCGGAUGCCUGCAAA [A14C C50G C70G]	0.000127 ± 3.4e-05	0.000437 ± 0.00014	0.000126 ± 3.1e-05	7.94e-05 ± 1.8e-05
AUAAAAGCGCCAUAACUACAGAAAUGUAGUUGACGAGGAGUAGGUUUAUCGAAUUUUCGGGGGAUGCCUCGAAA [G13U G41U C61G C71G]	< 1e-05	< 1e-05	< 1e-05	–
AUAAAAGCGCCAGCACUACAGAAAUGUAGUUGACGAGGAGGAGGUUUAUCGAAUGUUCGGCGGAUGUCUCCAAA [A14C U55G C67U]	0.00016 ± 4.2e-05	0.000309 ± 9.8e-05	0.000399 ± 0.00015	–
AUAAAAGCGCCAGCACUACAGAAAUGUAGUUGACGAGGAGGAGGUUGAUCGAAUUUUCGGCGGAUGCCUACAAA [A14C U47G C70A]	6.05e-05 ± 2.8e-05	0.000114 ± 3.4e-05	6.72e-05 ± 1.5e-05	–
AUAAAAGCGCCAGCACUACAGAAAUGUAGUUGACGCGGAGGAGGUUUAUCGUAUUUUCGGCGGAUGCCUCCAAA [A14C A36C A52U]	< 1e-05	< 1e-05	–	< 1e-05
AUAAAAGCGCCAGCACUACAGAAAUGUAGUUUACGAGGAGGAGGUUUAUCGCAUUUUCGGCGGAUGCCUCCAAA [A14C G32U A52C]	< 1e-05	< 1e-05	< 1e-05	–
AUAAAAGCGCCAGCACUACAGAAAUGUAGUUGACGCGGAGGAGGUUUAUCGAAUUUUCGGCGGAGGCCUCCAAA [A14C A36C U65G]	< 1e-05	< 1e-05	< 1e-05	–
AUAAAAGCGCCAGUCCUACAGAAAUGUAGUUGACGAGGAGGAGGUUUCUCGAAUUAUCGGCGGAUGACUCCAAA [A14U A15C A48C U56A C67A]	< 1e-05	–	–	–
AUAAAAGCGCCAUAACUACAGAAAUGUAGUUGACGAAGAGGAGGUUUAUCGACUUUUCGUCGGAUGGCUCCAAA [G13U G37A A53C G60U C67G]	< 1e-05	< 1e-05	< 1e-05	–
AUAAAAGCGCCAGGACUACAGAAAUGUAGUUGACGAGGAGGAGGUUUAUCGAAUUUUGGGCGGAUGCCACCAAA [A14G C58G U69A]	3.98e-05 ± 2e-05	8.05e-05 ± 3.6e-05	3.74e-05 ± 1.9e-05	–
AUAAAAGCGCCAGCACUACAGAAAUGUAGUUGACGGGGAGGAGGUUUAUCGAAUUUUUGGCGGAUGCCUCCAAA [A14C A36G C58U]	< 1e-05	–	–	–
AUAAAAGCGCCAGGACUACAGAAAUGUAGUGGACGAGGAGCAGGUUUAUCGAAUUUUCGGCGGAUGCCUCCAAA [A14G U31G G41C]	< 1e-05	< 1e-05	–	6.26e-05 ± 2.5e-05
AUAAAAGCGCCAGCACUACAGAAAUGUAGUUGACGAGGAGGCGGUUUAUCGAAUUUUCGGCGGAUGCCUGCAAA [A14C A42C C70G]	< 1e-05	–	–	–
AUAAAAGCGCCAGCACUACAGACAUGUAGUUGACGAGGAGGACGUUUAUCGAAUUUUCGGCGGAUGCCUCCAAA [A14C A23C G43C]	< 1e-05	< 1e-05	< 1e-05	–
AUAAAAGCGCCAGGACUACAGAAAUGUAGUUGCCGAGGAGGAGGUGUAUCGAAUUUUUUGCGGAUGCCUCCAAA [A14G A33C U46G C58U G59U]	< 1e-05	< 1e-05	< 1e-05	–
AUAAAAGCGCCAUAACUACAGAAAUGUAGUUUAAGAGGAGGAGAUUUAUCGAAUUUUCGGCGGAUGCCUCCAAA [G13U G32U C34A G44A]	< 1e-05	–	< 1e-05	–
